Experiments:
rat 6-OHDA model of PD = test: Neurorestoration study in 6-OHDA model of PD, amphetamine-induced rotations; type: in vivo; settings: intrastriatal injection 2 weeks after 6-OHDA lesioning; 2, 4, 6 and 8 weeks post-lesion
Method: In neurorestoration model of PD, rats were lesioned with 6-OHDA as described before (Voutilainen et al., 2009; Voutilainen et al., 2011, Penttinen et al., 2016). Briefly, rats received under isoflurane anesthesia unilateral stereotaxic injections of 3×2 μg 6-OHDA (in 10 degree angle) into the left striatum (coordinates relative to bregma and dura A/P+1.6; L/M −2.8; D/V −6, A/P 0.0: L/M −4.1; D/V −5.5 and A/P −1.2; L/M: −4.5; D/V −5.5). Two weeks later, rats were divided to groups based on their amphetamine-induced rotation results (size of the lesion). […] In the reference experiment after division of rats into groups, osmotic minipumps were inserted subcutaneously and cannula was placed into lesioned striatum. The minipump delivered MANF4 (i.e. MANF peptide CKGC, see WO2013034805), GDNF or vehicle solution into striatum for two weeks after which the minipump and cannula were removed. […] The number of amphetamine-induced (2.5 mg/kg, i.p.) full (360°) ipsi- and contralateral turns were recorded for 120 mins after a 30 min habituation period. The results are expressed as net ipsilateral turns to the lesion side Exclusion criterion was Mean (net rotations)±2×STDEV.

[1] = rat, in vivo, sc
Method: ^125I-CDNF, ^125I C-CDNF or ^125I C-MANF (all proteins at 106 cpm in 10 μl) were injected subcutaneously to adult male Wistar rats. Animals were perfused with PBS 2 hours later. Radioactivity was analyzed in different brain regions by gamma counter. Data are shown as mean±SEM. The differences between groups were analyzed ANOVA followed by Tukey-Kramers post hoc test.

[2] = tested on: ER stressed superior cervical ganglia (SCG) sympathetic neurons; test: Survival of tunicamycin ER-stressed SCG neurons microinjected with expression plasmids; type: cell-based, mouse; settings: expressed from microinjected plasmids; tunicamycin 2 μM; counted after three days
Method: (§1) Non-neuronal cells were removed by extensive preplating. Almost pure neurons were cultured in polyornithine/laminin (Sigma)-coated 35-mm plastic dishes in the small-size standard microislands in the Neurobasal medium and B27 supplement (Invitrogen/Gibco) in the presence of 30 ng/ml mouse nerve growth factor (NGF) (Promega) for 5-6 days. NGF was deprived by extensive washing and addition of the function-blocking anti-NGF antibodies (Roche). The neurons were pressure-microinjected with special neuronal microinjection equipment (Hellman et al., 2011; Hamner et al., 2001; Lindholm et al., 2002; Sun et al., 2001; Yu et al., 2003)(Sun et al., 2001; Sun et al., 2003). For the survival assay, all neurons on the microislands were counted in the beginning (initial number) and the end (three days) of the experiment and expressed as % of initial.
(§2) Microinjection of the sympathetic neurons was performed as described earlier (Yu, L. Y., Jokitalo, E., Sun, Y. F., Mehlen, P., Lindholm, D., Saarma, M., and Arumäe, U. (2003) J. Cell Biol. 163, 987-997). […] Next day tunicamycin (2 μM) was added, and after 3 days the living fluorescent neurons were counted. Living fluorescent (EGFP-expressing or Dextran Texas Red-containing) neurons were “blindly” counted three days later and expressed as percent of initial living fluorescent neurons counted 2-3 hours after microinjection. […]

ER stressed SCG neurons = test: Survival of tunicamycin ER-stressed SCG neurons microinjected with recombinant protein; type: cell-based, mouse; settings: recombinant protein microinjected into the cytoplasm; tunicamycin 2 μM; counted after 3 days
Method: as §1, §2

SOD1-G93A mice = test: SOD1-G93A mouse ALS model, single intracerebroventricular injection; type: in vivo; settings: females, vs PBS
Source text: Transgenic SOD1 G93A mice served as a transgenic mouse model for ALS in this study. Transgenic mice containing various human SOD1 mutations develop progressive neurodegeneration and motoneuron (MN) death, providing an animal model that has been commonly used for preclinical trials and that has greatly contributed to the understanding of FALS pathogenesis (Gurney et al., 1994). […] In these mice hind limb weakness and tremulous movement appear as initial symptoms at 8-10 week of age, followed by major symptoms such as progressive motor paralysis and neurogenic amyotrophy (Shibata 2001). These mice subsequently show disability of gait, eating and drinking and die within some weeks, usually at 14-16 week of age. […] Transgenic expression was analyzed by DNA tail tests and PCR, using specific oligonucleotides and conditions as done previously by others (see homepage Jackson Lab). […]
Mice were then evaluated for signs of disease and body weight changes twice a week. […]
Clinical scoring for SOD1 mice was done using instructions from Jackson laboratory. […] Animals were scored by lifting them gently by the base of their tails and observing them for tremors, stiffness and their ability to extend their limbs. […]

B1: C-CDNF: Human C-CDNF, SEQ ID NO: 4: C-terminal domain of mature CDNF, amino acid 101 to 161; recombinant, Histidine tag at C-terminus (protein, listed as Homo sapiens)
chain: KYEKTLDLASVDLRKMRVAELKQILHSWGEECRACAEKTDYVNLIQELAPKYAATHPKTEL
cumulative amphetamine-induced rotations (rat 6-OHDA model of PD): significantly reduces the cumulative amount of amphetamine-induced rotations | blood-brain-barrier penetration (radioactivity in brain) [1]: capable of penetrating neuronal cell membrane as well as the blood-brain-barrier | living fluorescent neurons, percentage of initial neurons [2]: rescue ER stressed superior cervical ganglia (SCG) sympathetic neurons | living fluorescent neurons, percentage of initial neurons (ER stressed SCG neurons): rescue ER stressed SCG neurons | clinical score (SOD1-G93A mice; single i.c.v. 3.75 μg at 13 weeks of age): statistically significantly better clinical scores | rotarod latency to fall (SOD1-G93A mice; single i.c.v. 3.75 μg, 4-40 rpm, cut-off 4 min): improves the motor behavior
